The values below come from patent publication US20210393711A1 (YISSUM RESEARCH DEVELOPMENT COMPANY OF THE HEBREW …, published 2021).

The test deals with T1, mouse Toll-like receptor 2 (mouse, UniProt Q9QUN7 25-784).
T1 construct: whole, on cells; also called murine TLR2; TLR2
Kind of test: anti-His whole-mount immunofluorescence of mouse maxillary gingival tissue (oral tissue that expresses TLR2) 24 h after oral lavage with scaTLR2-secreting Lactobacillus. As for the experimental part: The ability of Lactobacillus transformants to secrete functional single chain antibody (scAb) in the oral cavity, and the ability of the scAb to bind to oral tissue that express TLR2 was next assessed. Mice were administered by one oral lavage the following Lactobacillus transformants: EV (empty vector transformed, negative control), scahTLR4 (single chain antibody against human TLR4, negative control), and scaTLR2 (single chain antibody against TLR2). After 24 h the mice were sacrificed, Lactobacillus persistence was assessed by culturing viable bacteria and enumerating CFU, and the maxillary gingival tissues were processed for whole mounting and stained with an antibody to the His-tag present in the single chain antibodies Similar Lactobacillus CFU were recovered in all three groups. […] In the control groups there was no detection of His-positive staining (FIG. 7A-B). Therefore, scaTLR2 is secreted by the transformed Lactobacilli in vivo, and avidly binds to oral mucosal tissue.

T1 sequence (Q9QUN7 25-784): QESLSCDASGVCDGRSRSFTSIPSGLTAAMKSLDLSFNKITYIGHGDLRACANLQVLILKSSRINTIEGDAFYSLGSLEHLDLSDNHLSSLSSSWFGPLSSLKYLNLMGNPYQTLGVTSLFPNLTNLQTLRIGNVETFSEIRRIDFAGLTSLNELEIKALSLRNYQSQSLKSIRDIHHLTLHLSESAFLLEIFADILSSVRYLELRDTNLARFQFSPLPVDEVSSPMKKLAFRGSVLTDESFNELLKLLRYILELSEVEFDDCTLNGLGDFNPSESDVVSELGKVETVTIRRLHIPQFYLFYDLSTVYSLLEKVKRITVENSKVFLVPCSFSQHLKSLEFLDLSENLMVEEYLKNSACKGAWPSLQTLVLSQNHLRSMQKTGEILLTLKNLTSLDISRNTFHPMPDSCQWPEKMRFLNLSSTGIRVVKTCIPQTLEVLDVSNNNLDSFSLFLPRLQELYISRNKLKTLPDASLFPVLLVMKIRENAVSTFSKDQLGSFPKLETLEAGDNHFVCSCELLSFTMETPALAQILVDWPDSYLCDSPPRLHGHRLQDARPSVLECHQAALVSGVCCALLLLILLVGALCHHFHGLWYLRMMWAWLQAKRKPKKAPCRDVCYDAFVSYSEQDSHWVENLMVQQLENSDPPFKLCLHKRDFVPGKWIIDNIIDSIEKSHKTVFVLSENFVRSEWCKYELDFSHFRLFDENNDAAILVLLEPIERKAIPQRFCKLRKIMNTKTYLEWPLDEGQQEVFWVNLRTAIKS

B1: anti-TLR2 single chain antibody (scAb) secreted by transformed Lactobacillus, built from the variable regions of mAb T2.5 (scFv)
scFv: QVQLQQSGPELVNPGASVKLSCKASGFTFTTYGINWVKQGPGQGLEWIGWIYPRDGSTNFNENFKDKAALTVDTSSSTAYMELHSLTSEDSAVYFCARLTGGTFLDYWGQGTTVTVSSGGGGSGGGGSGGGGSDIELTQSPASLAVSLGQRATISCRASESVEYYGTSLMQWYQQKPGQPPKLLIFGASNVESGVPVRFSGSGSGTDFSLNIHPVEEDDIVMYFCQQSRKLPWTFGGGTKLEIKR
notes: also called scaTLR2; anti-TLR2 scAb
Consider B1, for which the binding result is reported as “binds”.
